# Reference: paper PMC6101608 (Nucleic Acids Research, 2018)
# T1: HpoR (M. smegmatis mc2 155, UniProt A0R4J9 1-199)
# T1 sequence: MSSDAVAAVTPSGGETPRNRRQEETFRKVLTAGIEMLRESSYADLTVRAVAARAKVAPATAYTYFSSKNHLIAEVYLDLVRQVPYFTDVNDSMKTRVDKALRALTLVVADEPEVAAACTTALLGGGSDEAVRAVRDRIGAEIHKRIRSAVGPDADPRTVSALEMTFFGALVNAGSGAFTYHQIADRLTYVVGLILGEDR
# B1: LtmA (natural protein)
# chain: MSDPAMESTRRRLSARQADTVERLGRAAVELISREGYAGLTVRRVAAEAGVGSATAYTYFSSKEHLVAEVFWRRLSAAPPAVHESPDPATRVVEVLQHIASLVADEPAFAGAVTTALLGKDPDVDALRQRIGADIRQRLVAALGPDVRIDVIEALELLYTGTMVWAGMGYDSYEQVVRRLEKSARLVLS
# How the values were obtained:
# [1] = system: HpoR (Mycobacterium smegmatis mc2 155); assay: EMSA
# [2] = system: LtmA (Mycobacterium smegmatis mc2 155); assay: EMSA
# [3] = target: T1, HpoR; assay: SPR
Molecule,Kd [1] [nM],Kd [2] [nM],Kd [3] [nM]
Ms5860p,290,620,
B1,,,7500 ± 800
